# Measurements taken from publication PMC8557155 (Annals of Nuclear Medicine, 2021).
# Experiments:
# [1] = design: species or system human (Japanese patients); settings: in vivo
# [2] = design: species or system human (Japanese patients); settings: in vivo; remark: listed apart in the source
# Description: Image processing and radioactivity quantification were performed by a nuclear medicine expert at site, and dosimetry calculation was performed by the sponsor of the study. All images were taken using the Symbia T-16 SPECT/CT scanner (Siemens). The dual-headed gamma camera was equipped with a 0.952-cm (0.375-in)-thick NaI crystal and a medium-energy low penetration collimator. An energy window of ± 10% was applied around the one dominant gamma ray energies of ^177Lu (208 keV). The matrix size was 256 × 1024. […] Radioactivity quantification was performed on patient images, and the geometric mean was calculated. Regions of interests (ROIs) were drawn around the kidneys, liver, spleen, other organs, and whole body on the planar images. Tumor tissue within the organs was excluded. The absorbed dose to each organ was estimated using the OLINDA/EXM 1.0 (Vanderbilt University), a software based on the Medical Internal Radiation Dose algorithm, which is widely used for established beta and gamma emitting radionuclides. The biological effective dose (BED) for the kidneys were estimated using the SAS software, version 9.4 (SAS Institute).
# [3] = in vivo; cited from earlier work
# [4] = in vivo; cited from earlier work; remark: listed apart in the source
# From the text: This study is the first clinical trial on ^177Lu-DOTATATE for unresectable NETs in Japan. At 29.6 GBq, the absorbed dose to the kidney and red bone marrow was 16.8 Gy and 0.722 Gy, respectively. These values were lower than the reported threshold dose for the kidney (23 Gy) and the red bone marrow (2 Gy). The calculated absorbed doses to the kidney, spleen, red bone marrow, and liver were 0.568, 0.559, 0.0244 and 0.247 mGy/MBq, respectively, in this study. We compared the calculated absorbed dose to each organ with previously published studies in Caucasian populations. […] In this study, the primary lesions were located in the pancreas, stomach, and rectum. Therefore, many patients underwent pancreatectomy and colectomy before enrollment in the study; diarrhea is likely to occur more in such patients compared to primary midgut cases because pancreatic enzyme deficiency o ...
smiles,measurement,setting,value
"C[C@@H](O)[C@H](NC(=O)[C@@H]1CSSC[C@H](NC(=O)[C@@H](Cc2ccccc2)NC(=O)CN2CCN(CC(=O)O)CCN(CC(=O)O)CCN(CC(=O)O)CC2)C(=O)N[C@@H](Cc2ccc(O)cc2)C(=O)N[C@H](Cc2c[nH]c3ccccc23)C(=O)N[C@@H](CCCCN)C(=O)N[C@@H]([C@@H](C)O)C(=O)N1)C(=O)O [177Lu-DOTATATE, ^177Lu-DOTA^0-Tyr^3-octreotate, metal not drawn]",Fraction of the injected activity retained in the blood at 20 min after the injection,[1],0.00351 % dose/g
same,Fraction of the injected activity retained in the blood at 4 h after the injection,[1],0.00077 % dose/g
same,"Effective half-time, distribution phase",[1]; iv,2.37 ± 0.30 h
same,"Effective half-time, excretion phase",[1]; iv,42.7 ± 2.44 h
same,"BED for the kidneys for 7.4 GBq, max",[2],5.38 Gy/7.4 GBq
same,"BED for the kidneys for 7.4 GBq, mean",[2],4.25 Gy/7.4 GBq
same,"BED for the kidneys for 7.4 GBq, min",[2],3.04 Gy/7.4 GBq
same,"BED for the kidneys for 29.6 GBq, max",[2],21.5 Gy/29.6 GBq
same,"BED for the kidneys for 29.6 GBq, mean",[2],17.0 Gy/29.6 GBq
same,"BED for the kidneys for 29.6 GBq, median",[2],17.2 Gy/29.6 GBq
same,"BED for the kidneys for 29.6 GBq, min",[2],12.2 Gy/29.6 GBq
same,"BED for the kidneys, max",[2],0.727 mGy/MBq
same,"BED for the kidneys, mean",[2],0.574 mGy/MBq
same,"BED for the kidneys, median",[2],0.580 mGy/MBq
same,"BED for the kidneys, min",[2],0.411 mGy/MBq
same,Effective radioactivity in the kidney at 1 h,[2],2.39 ± 0.535%
same,Effective radioactivity in the liver at 1 h,[2],4.97 ± 2.01%
same,Effective radioactivity in the spleen at 1 h,[2],0.812 ± 0.405%
same,Fraction of the effective radioactivity retained in the whole body at 1 h,[2],71.4 ± 4.9%
same,Fraction of the effective radioactivity retained in the whole body at 4 h,[2],39.5 ± 5.7%
same,Fraction of the effective radioactivity retained in the whole body at 24 h,[2],16.0 ± 3.5%
same,Fraction of the effective radioactivity retained in the whole body at Day 6,[2],5.8 ± 1.3%
same,Absorbed dose to the spleen,[3],0.645 mGy/MBq
same,"Diarrhea, frequency",[4],28.8%
same,"Severe renal toxicities, frequency",[4],0.9%
